From a protein production outcome set (Wang et al. 2014)

Experiment: label from the status in PepcDB records
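Also: failed if final PepcDB status was selected cloned or expressed and not failed if soluble or beyond.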

Row | Sequence | protein production
1 | MKRFAFRVILHILLIVLFSIGSYLLFQKQLWFSTTICLILLITIGIHLYRMQFKQIALLRRLTDGLRYNDMMQTFHPPFNNKIMNEWAEELSDTLKDFRGRLLAEEIKHQYYENLLNKVDTAVLVADKAGHIEWMNQAAVTHLGQISQLPETLLKASVAHDTPVIRIEQNSTVLEMAISRTTFATQGREQQLISLKNIHSVLERNEMEAWQKLIRVLTHEIMNSITPIISLSETLSERGIPSQLGEKEYSVMLQAMQTIHRRSKGLLEFVENYRRLTRIPAPIRTQISIAELFTDLKKLFPEEEFQFEVPSPELKLNVDRTQIEQILINLLKNAREACSRKSDKKIQVKARKLSAGNTTLTISDNGEGILPDVLDKIFVPFFTTKTSGSGIGLSLCKQIMTLHEGSINVKSEVGKGSSFILTFPK | failed
2 | MVKKIVNPINIIVVVMHISVSIYALFVNVPFKAELFKDNVVLCIYVITFYIGFLLLGDFFRERKIFRKRNDGNRESKTISIIGGIFLFAGILLGMSSVMTIYNIKVDASEYSIGRIIFDTIKVDNVKRESTTSKPQGIFVQRSITTIRTEEVDGISVKSNKRVEFKHCYLYGWQVIEGKIYNVKYLPTTHRILSIEEKK | failed
3 | MLKKGNEMKAVIVYASVHHGNTKKIEEAMASVISADVIDVTRKIKPDLSGYDVIGFVSGVYFHTFHEGIKKCIEENMSSKGQKVFLVATCGLGYRDYTKGMKDTLAKKDVLCMGSFQCRGWDTYGIFGKIGGIAKKHPNDRDLKEAQEFVLKTVCKTNNLEHHHHHH | failed
4 | MNRLRTSLTALAAAITLSGLANAATRYEELANQPFEKGFPTETAARNLIDELVFQRAVQSYLWALPAINIWSMKEASEKEFGAGYNILPTWKKRINAKTLVTTPNSDLVYAMSYLDLQKYGPLVVEAPPGVQGMFDDFFQRPIVGPTIDGKTWRGDVGLAGPDKGKGGTYVLLPPDYKGPEPTEGYVYRSRTNNVFLFWRTFFKDPKDLSVPVAEVERTKIYPLGKKDEALPMQFPDATGAPINMLFPEDGRYFDMLSRFIDAEAVDPADMDMRGFLHTLGIEKGKPFAPDAQRRKLLDEAARTAFKMSKVVTSHLLLKEPGGLYYKDRQYVNTFAGENTEFQSSGSFTNLEQRVAFFTSAYSDSPGMVMNMVGAGAKYPATTRDADGKFLDGAQTYKLNLPANVPAALFWSVTAYDNLTASGLDNGQPFPSLNQMDKPVQNSDGSTDIYFGPKSPGEGKNWIKTVPDKGFLVIVRLYGPKQAFFDQSWKPSDLLKQ | failed
5 | MATRTQARGAVVELLYAFESGNEEIKKIASSMLEEKKIKNNQLAFALSLFNGVLEKINEIDALIEPHLKDWDFKRLGSMEKAILRLGAYEIGFTPTQNPIIINECIELGKLYAEPNTPKFLNAILDSLSKKLTQKPLN | failed
6 | MIRVTFLPDQVSVEATAGEAWLSVAARAGVEIPTGCRMGSCGACTLELEDGQEIRACISTIAGDRDPAPLEDCPHITAYVFRDPTW | failed
7 | MKRWGLIFPTLYFFFLFIMIFVFNFPREVTRQWMWIQVGGIVFMIALGLYFDGYASLKEVITIGAFTLLWLGLSFTVNIRKEYFTLLGLIIELVLDLALREGG | failed
8 | MNSEIFRIFRKKYSEEIRNPPMNATTLPEALKLMQYIGDAIGTIRDPQELFRTVTDKLRLLFAFDSAVIITIDRERREASVFFEMLRFELPEQLRHQTRSIAGTWLEGHLDDRTVTVASIARDIPSFGADGAPLLWTLHELGMRQIVLSPLRSGGRVIGFLSFVSAEEKLWSDGDKSLLSGVSSSIAIAVSNALAYEELRQRE | failed
9 | MSSNPLRFFVLTIFPHIISCYSEYGIVKQAIKKGKVEVYPIDLREFAPKGQVDDVPYGGLPGMVLKPEPIYEAYDYVVENYGKPFVLITEPWGEKLNQKLVNELSKKERIMIICGRYEGVDERVKKIVDMEISLGDFILSGGEIVALAVIDAVSRVLPGVLSEPQSIQEDSFQNRWLGYPVYTRPREYRGMKVPEELLSGHHKLIELWKLWHRIENTVKKRPDLIPKDLTELEKDILNSILSGKSFKEWLKEHKHLL | not failed
10 | MHSQIWVVSTLLISIVLIVLTIVKFKFHPFLALLLASFFVGTMMGMGPLDMVNAIESGIGGTLGFLAAVIGLGTILGKMMEVSGAAERIGLTLQRCRWLSVDVIMVLVGLICGITLFVEVGVVLLIPLAFSIAKKTNTSLLKLAIPLCTALMAVHCVVPPHPAALYVANKLGADIGSVIVYGLLVGLMASLIGGPLFLKFLGQRLPFKPVPTEFADLKVRDEKTLPSLGATLFTILLPIALMLVKTIAELNMARESGLYILVEFIGNPITAMFIAVFVAYYVLGIRQHMSMGTMLTHTENGFGSIANILLIIGAGGAFNAILKSSSLADTLAVILSNMHMHPILLAWLVALILHAAVGSATVAMMGATAIVAPMLPLYPDISPEIIAIAIGSGAIGCTIVTDSLFWLVKQYCGATLNETFKYYTTATFIASVVALAGTFLLSFII | failed
11 | MNSFWTFLQLIFVILQVTSLALYALLPAPWSDTVLVAMILFSLIIGIVIWWWSRRNALTAPFRQPFLSSDSLQLFEQVFNDLPTRVYWRDPELKLLGGNRAFANDFGIDPESLAGKTDAEIDSLASNDVLLERDRKTFSQQAPSVNAEIELKVSGKSQWVEHSSVPLYDDDHNIIGILGSYYDISGIKSVAEEMEKAKETAERANQSKGEFLANMSHEIRTPINAIVGMANLCLKTELTQKQKRYIKVIDSSSQALLGVINDILDFSKIDAGKLTVERIPFDLQDVLTSLADMFAYRAYDKDLEFIINLPANIPTRLIGDPLRLNQVLVNLISNAIKFTEDGEINVAVNLLDSSRDNVLLRISVTDTGIGMDEEQRANLFKAFTQADTSTTRKYGGTGLGLAISRRLILLMGGDIGVTSAAGQGSTFYIEVELPLQTEQDNSHHQYLLQKLKGVRILAIDDNLSTREMLYEMLRSYQVDVKVCRTAEQALQVFQLSVEDNNPYQLVLVDWRLPGMDGLEFCQKITERYAEDIRPKMTLATGYYAEELSEKAKQAGVNDIISKPFTASTLGRSLTSTLFQRELSDADDADSGDGIPESILRAPILVVEDNEINQQVAREILSSHKFKVDIVENGQLAVEAVHNKNYSLVLMDIQMPVMDGLKAAQTIRADFNYQQLPILAMTANAMSGDEERSLAAGMQGHIAKPIDEQQLIKAIIKWAVPGDYTNNQQPEVPPESKQDEVNKPPVRIPQVKGIEFETALKRLQYNVELYLKLVEQLYETYQGSATKVSDFITRGQHESARRYFHSLKGAAANLGFTQLQSKAADLEQFMAEGNIDKVADQITELEKRLRYAHQAAVDLEAIQQHQS | failed
12 | MKPLEQAINDNKKKKRFNFRMPGAFMILFILTVVAVIATWIIPAGAYSKLSYEPSSQELKIVNPHHQVKKVPGTQKELDRLGVKIKIEQFKSGAINKPVSIPNTYERLKQHPAGLDQITSSMVKGTIEAVDIMVFILVLGGLIGVVQASGSFESGLLALTQKTKGHEFMLIAFVSILMIIGGTLCGIEEEAVAFYPVLVPIFIALGYDSIVSVGAIFLASSVGSTFSTINPFSVVIASNAAGTTFTDGLYWRIGACIIGAIFVISYLFWYCKKIKKDPKSSYSYEDKAAFEKQWSVLHDDGSSEFTLRKKIILTLFVLPFPIMVWGVMTQGWWFPVMASVFLIFTIIIMFIAGTGQYGLGEKGTVDAFVNGASSLVGVSLIIGLARGINLVLNKGMISDTILHFSSSIVQHMSGPLFIIVLLFIFFCLGFIVPSSSGLAVLSMPIFAPLADTVGIPRFVIVTTYQFGQYAMLFLAPTGLVMATLQMLNMRYSHWLRFVWPVVAFVLIFGGGLLITQVLIYS | failed
13 | MLLQPSRVRSGGRARWHAVQCAAAVTIGRDHPRHRYTRAMSSPLSCRLGCAACCIAPSISSPIPGMPNGKPAGVACVQLDAQLGCRLFGSPLRPAVCGNLRPSLEMCGTSRKQALSMLAALERATQP | failed
14 | MVQIAGTPVPLSAKSRGPNALSSLLAALFLLLSQPASGAEAKQCIDNAELDAADKAFNSLHYAKADSLYQSMLQTGDQSSTLYWKLARLNISIAEAIDPSERKKRIPFYNKAVEYARKSVQLDENNASAHTWLAAALALKADKIGAKEKLNRAAEIKRELDKALALNPNDDVAWSMLGSYNFEASKIGWFSRFMGSTFVGKMPKGSREEAEKDFKKAISLNPRVIRHYHELALLYLEEDRKQEALNTLRIAETRPVLMKSDVRRLKEIKKLIAKLSKEIEEK | failed
15 | MDPWDTYNIPLDHQHRLRNRRDHRHPSFSSTLLDQIYRSIDDSSTNSSSMRKTKHQNREDTRVSANRRDDFNRSKNLKTIEPVFFKHSSSSSSDSSGFSSSESDYFYRRSKSSPAISHPKPIRTTVERFERSPQNHRPNSSNKQEHGSFLKTKSKALKIYSDLKKVKQPISPGGRLATFLNSIFTGAGNTKKLNKINTTVTSTTAAAAAASSTTTCSSASSFSRSCLSKTPSSSEKSKRSVRFCPVNVIFDEDSSKYNNKNNKVYGNNEREYESIRHTLENRVMEENRRVIEAAKELLRSYQKKNKEVIEVSVEDDEEDDDDDALSCTSSDLFELDNLSAIGIDRYREELPVYETTRLNTNRIISR | failed
16 | MTTKLDPEALNVSEEARERGTGYLNVALFGVDSRDNELEKDTRSDTIMIASLNRETMEVKISSVYRDTLLEQSDGTLNKANAAYSFGGPETAVAMLNKNLDMDIEHYVTVNFNSLIDVIDAVGGVEIDVQEEEIPYICGYAMEIMRVTGRESAGVTEPGVQTLNGIQATAYARIRYTAGDDFKRAERQRDVLTKIVGKLQGASLAQINKIIDKVFPEVSTNFTLAEILEYAKDAFDYKLGETIGFPFDKTTDTLANIGSVVIPVTLDKNVEQLHKFFYGEGDTYSPSSTVNTISGKIVAKAGDRQADTDEDSQGIMQQPDESYTGGGSSGGTKTPSSGGTSGGSSQPTPTPTPTPTPTPEPDPQPQPDPGGDDGSGGSGGDTSGGGAEGTPDAGTQLEHHHHHH | failed
17 | MEKYSQVIFDKNTVEFVTVAAEFCGFLERARDMKRYDFVDTALKILPLLYLKATLLPPCEPIGEDEPETFVTEEDYELIRRAIAGVLGAKDDYLEVFLPDMVYSDTPIKKCISEDLADIYQDLKDFISVFQLGLNETMNDSLVVCKEHFREFWGQRLVNTMRALHDVKYSPLEHHHHHH | not failed
18 | MDDAERERGPWHRNLIVLWFCTFVAGMAFSEIMPFLSLFVSQLGDFTKAQITFYSGLAFAADYAISAISAPLWGIIADKKGRKIMLLRASLGMAVAMGLMGFVTNVWQLVALRALQGVFAGFISNAQALVASQTPRKYSGRALSTLITGAVSGQLFGPVIGGLLAQLFSIRNTFFITAGLLMVAFLLSLFFVQEHFKPVAHHREPGDSRNPLAAFQNPRLIIVMLCSTAIVQFGNASIAPIISLYVRELMHYRGPITVVAGIIAALPGISNIFSAPRLGRYGDQHGSGKVLLFGYIFAVIMYFPQGIVTSVVALGILRFAIGISDGALYPEIQTVLTKNTPVHLTSTIFSYNQSFQAIGNMFGALLGGLVAGWFNYNAVFIMTALLLLINLGLILWLVPDIWKNGKRAVS | failed
19 | MTNNQKLVGRHKRLAFMKVGTEGTYDRITGFTSLIEGKEAKEYARQYIDEATERTDVVGYATGIEYAFDRYTNNAVHEKIANITDDELLGVDAQVEIVSVDVFEEKAGGKYPARKRTYSVVPDTTGDGTDALIYSGNFKAVSEIVKGYCTTTDKWQTCTFVEGEIPAEALEHHHHHH | not failed
20 | HRWITRPKFTHFDLHTLNWDLCLTQANHKSNLALEMLKMLLDSLPETVEKIQTALGQNDQATMLSTIHKLHGASCYCGVPTTQRLCQEIESALKRQTPVEDLEPEILELLDELTKVESAVKQVLSQLSAE | not failed
21 | MKKQFLFLLLAVILLSSCATATLSEFPGVGRVKQYDFYSYDIPPAFDGFRIGFASDFHYESRFKRSELNSAVRALKSMHADVLLLGGDYRGKKGGNLDTLFTALSRVYTPYGTFAVMGNHDYGYCYSEVVEAMQKNHVRLMEHKSYKLMKDGQYIIVSGVRNPFDLKKNGDSPSQHFPADDFIILLTHTPDYAEDTDVSNANLVLAGHTHGGQVSLFKKYSPVKHSIYGNRFLTGWKENSKGTPIIITNGLGTSRVDVRLFTPSEVVLVVLHRVEKQKE | failed
